Assay results published in publication PMC10877131 (JHEP Reports, 2024).

Target: the molecule itself
Test: immunoblot

B1: Thrombospondin-2 (THBS2), overexpressed in LX-2 cells, in conditioned media (natural protein)
chain: not shown
stoichiometry N: 2
